Experimental data: the supplement of paper PMC12764529
± gives the half width of the 95% confidence interval.

Assay: folding stability dG unfold from chymotrypsin proteolysis; higher = more stable
Procedure, shortened: (§1)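 Only designs with AlphaFold2 dimer inter-PAE above 15 were retained; each was a mini-protein under 80 residues with no cysteine, in a PA-tagged cDNA display construct. After digestion with trypsin and chymotrypsin and sequencing, K50 was inferred by Bayesian fitting of counts, and unfolding free energy was derived per protease or combined against a sequence-predicted unfolded-state K50 and a shared folded-state K50.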

Sequence | folding stability dG unfold [kcal/mol]
SAGGEKATVTVVYDPEKGYVVVPVDIPFLDENGKPKKLKLVFVLPASPEAEEAVKELAKELGLESVESAGGS [r8_381_TrMRF] | 2.38 ± 0.059
SAGEVELTEDGSLKITETIEVNGLLFKVTVTIDENGNISVSIEKVEVLPPPPPVEIKLEDEEAKKKALKSAG [r5_715_TrROS_Hall] | 1.61 ± 0.14
SMNIHIPILTRPDVDEETIEEEVEALAAELAEKLGLPEGVEVEIEPEPLPEDGVVYHVTLRVGDVEFKGESA [r9_776_TrMRF] | 0.0835 ± 0.4
SAGGSKFEVEKLPDNTYRFKVPNENGETLEITVEKLPDGAILVTHPSNPKPVLFPASTTIEDLLKKSAGGSA [r2_338_TrMRF] | 2.22 ± 0.029
SAGGSAKVVEIELVEVRRNANGERIVRVRIKLPNGEERTIEMSEEELKELLAKLPPNVEIVAIEEVSAGGSA [r15_339_TrROS_Hall] | 1.76 ± 0.043
SAGGSAGGSAGDWIKFEYTFKWNFFDPDGDLLMNMTVRVTIEIPIPPVPKPVKPSPNDDNSAGGSAGGSAGG [r17_325_TrROS] | 5.4 ± 0.15
SAGGSAGGSAGGGMTVEESVFLDPSGTRITVTTRVFDDGTVVTETEVTPLPPTPNPALASAGGSAGGSAGGS [r10_878_JUSTAS] | 1.08 ± 0.066
SAGGSAGGSAEVPKPGEAKPVLVTSSFTIPLPNGGTLEITTVDLVDVATGTVTPRVEVRSLDSAGGSAGGSA [r18_123_TrMRF] | -0.991 ± 0.88
SAGGSQLDEYRKKVEEAIEKAKAEGKPVEKIELTGSEEVAKEVREWLEEQGIPKSVKVTVTPPAINESAGGS [r16_164_JUSTAS] | 1.13 ± 0.015
SAGGSMIVKVTVRVDGKEYERTVEVESLEEALELELPELPEGAEVRIEVVDPETGELIETVTLRVPSAGGSA [r2_390_TrROS_Hall] | 2.56 ± 0.052
SPIRIRIWNPKNNVPIDEIDIQPNEDGNYGIKIKFWMPGKQHEHTIPIPPGETADEFINDHGIRSIEIEPSA [r9_492_TrROS] | 1.01 ± 0.11
SAGGSAGGSAGLPEEIADFVKEILEKAFPNVKVLEVEVEELPEGFYVVRARFEDGSEVEFPISAGGSAGGSA [r18_423_TrMRF] | 3.47 ± 0.059
SAGWISPKQLRHALRNGKPIKIYMPNPQNKEHAKNWLRQETGLPKEEQKELLKDVKIEPMPPNDPNFKKSAG [r5_368_TrROS] | 0.497 ± 0.47
SAGGSAGGSAGMKLTITVTFPDGTTPTFEVPPNSGDPAEVAAAIRAAHPDVVTITITPELSAGGSAGGSAGG [r11_311_JUSTAS] | 0.27 ± 0.063
SAGGMTLEDLAGQSIEEALDLIEENGWDEVTITYPGGSKIEIKYNKDGPIEVEWENPDGNKQTFTIPSAGGS [r8_51_TrROS] | 0.907 ± 0.1
SAGGMTPEEKEEIAKKFAEELLKKLKEGDPNVKVETEVDPEKGVVKIKVINLNTKKPKTIEIPFSELASAGG [r13_354_TrMRF] | 1.83 ± 0.034
SAGGMPGVRPVVTVTVLVKFPGPDETKTVTITMRPEELAAGVTPEAAARRVAEALGHDIEILEIERKSAGGS [r16_554_JUSTAS] | 1.86 ± 0.031
SMLLIKITVKNPDGEEKEIVLSAEELRKLFEEETGEEYSLEEIAERLKKLFPNAKVEIVPLEELSEEELKSA [r9_1085_TrROS_Hall] | 3.58 ± 0.068
SAGGSAGGSAGGKIKLTVEKTEDGYLRVTAEDEDTKETVVITLPKGTTLEEALKLLKELSAGGSAGGSAGGS [r10_825_TrROS_Hall] | 3.08 ± 0.14
SAGMVIVDPKTKKKITFDKESGEIYIEVDGKKKKIKLKPGEKVEIEIIEKDGKLIIKIKANGKIIEIEPSAG [r5_858_TrROS_Hall] | 2.09 ± 0.12
SAGSKTISISVPGNWNIEELKAFLSTLPDNVTVYIFYPNKVYVGTVDKKNINLSADSSYDGFKVLVVVPSAG [r5_373_TrMRF] | 3.12 ± 0.028

Assay: folding stability dG unfold (combined trypsin and chymotrypsin); higher = more stable
Procedure, shortened: as §1

Sequence | folding stability dG unfold [kcal/mol]
SMKPGQTVTFNVMIRMKDPNMTAQEFAEEAADEIAENFPPGVKIEIKVDDIEPDPPNGEVYFMVKITITVSA [r9_706_TrROS] | 3.35 ± 0.23
SAMVTARVSDSVLRAYRLPDGYVRLVVFDPKTGEPVVEFVVPEDLITDIVEVGDKAVIHVDVKEEDLKLSAG [r14_755_TrMRF] | 1.69 ± 0.077
SAGGSAGGSAPWRIRIRDPNGKKVEIPWEEVADKFGIPPEEMTLDDILEAFANNIDRIEIVDSAGGSAGGSA [r18_403_TrROS] | 0.64 ± 0.081
SAGGSAGGMTPEELAEQKAEELREKLLAEGRPVSLKITKVTYEVDPKTGTVKVTSDIEIVYGPGSAGGSAGG [r6_454_JUSTAS] | 0.986 ± 0.24
SAGGSMPLDVSSELLEESTDPSDPNRRTTLERRFSPDGTVTLVTRTFDPATGTTEVQETTLPPGLPSAGGSA [r2_73_JUSTAS] | 1.14 ± 0.099
SAGGSAGDPSLPQPQYIAFLLVTKPGGVEEPLEVEVKTEEEAEKIAQEVRDAGYEVELELRPAALLSAGGSA [r15_906_JUSTAS] | 1.44 ± 0.38
SAGGKYEYDPDNGYYRDEDGKMYYPMPPQIPPIEIPIPINLPNGQKLNIPVEFRTIEDALDALKKFFSAGGS [r8_440_TrROS] | 1.01 ± 0.14
SAGEERTVRVEIEIVVKTEEELEALKALFPNAEATRNEDGLLTLRLTIEVRVAPPVVVRDPETNELLELSAG [r5_129_TrROS_Hall] | 2.46 ± 0.11
SAGGMEVVFVVGSPEVAEAFREKHPDLPFVPVSLEDYRNPAPFEAAVAAVEARGHAVRVITVPDDPESAGGS [r8_376_JUSTAS] | 0.796 ± 0.064
SNELAKEIADELKKQGYEVKDVEVQYSPDDGMVEIEARIRHPDDGRQYRIDIHVNPDDGKITQVKIEPRPSA [r9_814_TrROS] | 0.825 ± 0.17
SAGGSAGGSAPVAYTITITYRDPDGSTRTLTLTFPNLTPEEAKEAAEALPIPASVVSIDITKASAGGSAGGS [r12_886_JUSTAS] | 3.29 ± 0.082
SAGGMTPSVLSNLSEEERKEAVRDFIIEFIKKAFPNVPEDFSVEEVPVLVYDLKTGKLFEVTVHLEGKSAGG [r13_555_TrMRF] | 1.73 ± 0.15
SAGMMEIVEVKEVDGRLELKIKDKETGEEFTITVERKEDGELKVTIEMSDEAAERLRELFPEIDRLEIKSAG [r5_933_TrROS_Hall] | 2.93 ± 0.097
SAGGSAGGSAGGRFEVLGVEPLPGNWVRVRVRYPGLGREATFLVRVSSLPLPPVDLDRFDSAGGSAGGSAGG [r11_986_TrMRF] | 2.71 ± 0.083
SAGATPTTLSFTDPEGKKIANVTVTVLPGGRQEASITNSDSNESYTAEYDPATGTWTLTFPDGTTLTVGSAG [r5_809_JUSTAS] | 1.58 ± 0.059
SAGSPLYEVKSEEVLPGPGGEPMRVTVVELPGGEILTFVESPDGLLEIRYIPAETGKFEKTEKVPRDLLSAG [r5_750_JUSTAS] | 0.618 ± 0.15
SAGGMKYLVTITITDPDTGQERVIEVEFPDMTPEEIKEAAEELAEEIASEQGLNLKVEVEVTPIPLLSAGGS [r8_185_JUSTAS] | 3.55 ± 0.068
SAGGSAGGSAGMRTITIPIPDGDPENIEEQARELADAFPDLKGKKVNIEYHKDGWITITVSAGGSAGGSAGG [r17_324_TrROS] | 1.15 ± 0.18
SAGGSAEIELPEGAKVEVTEVEVDGELYLRMKVVDEETGEVFVMEMRMRPDGEMEMEVKKIPKEELSAGGSA [r15_986_TrROS_Hall] | 1.85 ± 0.27
SAGGSAGGKIEEIAKKLNLEVESIEYDKETKKVTVTIKVNGKLYKIEIYVENGKIVKIKIEELPSAGGSAGG [r6_373_TrROS_Hall] | 4.01 ± 0.23
SAGGSAGGPNMYMFKLEIKWYDPGKGKPVATRPITVMVPEDDLPEILKNLPPGFEIKNITIFPMSAGGSAGG [r6_777_TrROS] | 2.45 ± 0.11

Sequence | folding stability dG unfold [kcal/mol]
SAGGEKATVTVVYDPEKGYVVVPVDIPFLDENGKPKKLKLVFVLPASPEAEEAVKELAKELGLESVESAGGS [r8_381_TrMRF] | 2.11 ± 0.2
SAGEVELTEDGSLKITETIEVNGLLFKVTVTIDENGNISVSIEKVEVLPPPPPVEIKLEDEEAKKKALKSAG [r5_715_TrROS_Hall] | 1.16 ± 0.69
SMNIHIPILTRPDVDEETIEEEVEALAAELAEKLGLPEGVEVEIEPEPLPEDGVVYHVTLRVGDVEFKGESA [r9_776_TrMRF] | 0.0299 ± 0.33
SAGGSKFEVEKLPDNTYRFKVPNENGETLEITVEKLPDGAILVTHPSNPKPVLFPASTTIEDLLKKSAGGSA [r2_338_TrMRF] | 1.95 ± 0.032
SAGGSAKVVEIELVEVRRNANGERIVRVRIKLPNGEERTIEMSEEELKELLAKLPPNVEIVAIEEVSAGGSA [r15_339_TrROS_Hall] | 1.56 ± 0.15
SAGGSAGGSAGDWIKFEYTFKWNFFDPDGDLLMNMTVRVTIEIPIPPVPKPVKPSPNDDNSAGGSAGGSAGG [r17_325_TrROS] | 5.34 ± 0.22
SAGGSAGGSAGGGMTVEESVFLDPSGTRITVTTRVFDDGTVVTETEVTPLPPTPNPALASAGGSAGGSAGGS [r10_878_JUSTAS] | 1.11 ± 0.15
SAGGSAGGSAEVPKPGEAKPVLVTSSFTIPLPNGGTLEITTVDLVDVATGTVTPRVEVRSLDSAGGSAGGSA [r18_123_TrMRF] | < -1
SAGGSQLDEYRKKVEEAIEKAKAEGKPVEKIELTGSEEVAKEVREWLEEQGIPKSVKVTVTPPAINESAGGS [r16_164_JUSTAS] | 0.83 ± 0.077
SAGGSMIVKVTVRVDGKEYERTVEVESLEEALELELPELPEGAEVRIEVVDPETGELIETVTLRVPSAGGSA [r2_390_TrROS_Hall] | 2.46 ± 0.15
SPIRIRIWNPKNNVPIDEIDIQPNEDGNYGIKIKFWMPGKQHEHTIPIPPGETADEFINDHGIRSIEIEPSA [r9_492_TrROS] | 0.7 ± 0.086
SAGGSAGGSAGLPEEIADFVKEILEKAFPNVKVLEVEVEELPEGFYVVRARFEDGSEVEFPISAGGSAGGSA [r18_423_TrMRF] | 3.88 ± 0.069
SAGWISPKQLRHALRNGKPIKIYMPNPQNKEHAKNWLRQETGLPKEEQKELLKDVKIEPMPPNDPNFKKSAG [r5_368_TrROS] | -0.0521 ± 0.45
SAGGSAGGSAGMKLTITVTFPDGTTPTFEVPPNSGDPAEVAAAIRAAHPDVVTITITPELSAGGSAGGSAGG [r11_311_JUSTAS] | 0.448 ± 0.12
SAGGMTLEDLAGQSIEEALDLIEENGWDEVTITYPGGSKIEIKYNKDGPIEVEWENPDGNKQTFTIPSAGGS [r8_51_TrROS] | 0.833 ± 0.083
SAGGMTPEEKEEIAKKFAEELLKKLKEGDPNVKVETEVDPEKGVVKIKVINLNTKKPKTIEIPFSELASAGG [r13_354_TrMRF] | 1.77 ± 0.1
SAGGMPGVRPVVTVTVLVKFPGPDETKTVTITMRPEELAAGVTPEAAARRVAEALGHDIEILEIERKSAGGS [r16_554_JUSTAS] | 1.61 ± 0.088
SMLLIKITVKNPDGEEKEIVLSAEELRKLFEEETGEEYSLEEIAERLKKLFPNAKVEIVPLEELSEEELKSA [r9_1085_TrROS_Hall] | 3.31 ± 0.12
SAGGSAGGSAGGKIKLTVEKTEDGYLRVTAEDEDTKETVVITLPKGTTLEEALKLLKELSAGGSAGGSAGGS [r10_825_TrROS_Hall] | 3.19 ± 0.17
SAGMVIVDPKTKKKITFDKESGEIYIEVDGKKKKIKLKPGEKVEIEIIEKDGKLIIKIKANGKIIEIEPSAG [r5_858_TrROS_Hall] | 1.75 ± 0.2
SAGSKTISISVPGNWNIEELKAFLSTLPDNVTVYIFYPNKVYVGTVDKKNINLSADSSYDGFKVLVVVPSAG [r5_373_TrMRF] | 2.84 ± 0.083
